Among the data in patent US20070248613A1 are IC50 (read off the curve) values, retold here.

This assay deals with IZN36 (HIV).

B1: D5 IgG (antibody, V domains shown)
VH: QVQLVQSGAEVRKPGASVKVSCKASGDTFSSYAISWVRQAPGQGLEWMGGIIPIFGTANYAQKFQGRVTITADESTSTAYMELSSLRSEDTAIYYCARDNPTLLGSDYWGKGTLVTVSS
VL: DIQMTQSPSTLSASIGDRVTITCRASEGIYHWLAWYQQKPGKAPKLLIYKASSLASGAPSRFSGSGSGTDFTLTISSLQPDDFATYYCQQYSNYPLTFGGGTKLEIK
The molecule B1 showed an IC50 (read off the curve) of 600 pM.
